Data reported in patent US20140378536A1 (VALTED, published 2014).

Target: T1, FLAG-tagged PARIS (full-length PARIS, ZNF746, in pCMV-Tag2A) (human, UniProt Q6NUN9 1-644)
T1 construct: Expressed in SH-SY5Y cells from cDNA IMAGE:30347892; The construct limits it prints (1-644, 322-644) match the 644-residue human entry; also called FLAG-PARIS; pCMV-FLAG-PARIS; not shown: N-terminal FLAG tag of vector pCMV-Tag2A
Experiment: co-immunoprecipitation, IP of FLAG-PARIS (FIG. 20)
Method: For co-immunoprecipitation from cell cultures, SH-SY5Y cells were transfected with 2 μg of each plasmid, unless otherwise indicated.

T1 sequence (Q6NUN9 whole entry): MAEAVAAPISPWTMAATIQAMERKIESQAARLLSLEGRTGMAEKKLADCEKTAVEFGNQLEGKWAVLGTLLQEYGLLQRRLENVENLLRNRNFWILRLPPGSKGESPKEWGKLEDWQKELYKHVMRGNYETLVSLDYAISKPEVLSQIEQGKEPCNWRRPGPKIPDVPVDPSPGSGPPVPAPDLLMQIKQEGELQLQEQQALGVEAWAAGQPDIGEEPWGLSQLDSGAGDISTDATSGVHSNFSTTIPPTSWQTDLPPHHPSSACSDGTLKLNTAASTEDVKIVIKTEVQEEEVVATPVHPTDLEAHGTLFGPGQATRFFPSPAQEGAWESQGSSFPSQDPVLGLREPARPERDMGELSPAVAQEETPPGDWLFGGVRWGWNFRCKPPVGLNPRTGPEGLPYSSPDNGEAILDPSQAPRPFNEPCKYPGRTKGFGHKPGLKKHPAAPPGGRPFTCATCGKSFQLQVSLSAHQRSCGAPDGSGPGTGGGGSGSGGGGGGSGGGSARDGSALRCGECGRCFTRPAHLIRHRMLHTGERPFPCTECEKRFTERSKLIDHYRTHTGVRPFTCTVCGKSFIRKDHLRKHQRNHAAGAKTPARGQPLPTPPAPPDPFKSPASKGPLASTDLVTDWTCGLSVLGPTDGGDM

binding result: no binding
B1: HA-tagged parkin truncation, amino acids 1-198 (UBL-SH) (other, UniProt O60260 1-198, looked up)
chain: MIVFVRFNSSHGFPVEVDSDTSIFQLKEVVAKRQGVPADQLRVIFAGKELRNDWTVQNCDLDQQSIVHIVQRPWRKGQEMNATGGDDPRNAAGGCEREPQSLTRVDLSSSVLPGDSVGLAVILHTDSRKDSPPAGSPAGRSIYNSFYVYCKGPCQRVQPGKLRVQCSTCRQATLTLTQGPSCWDDVLIPNRMSGECQS
notes: range 1-198; also called N-terminal UBL-SH domain; not shown: HA tag of vector pRK5-HA
